Assay results taken from PMC10284548.

How the values were obtained:
[1] = target: AsLOV2; assay: single-molecule force spectroscopy (dual-beam optical tweezers); constant load of 11 or 16 pN, dark; AsLOV2 and Zdk2 on one chain joined by (GGS)42, tethered by DNA handles between two beads; PBS, 1 mM TCEP, pH 7.4
[2] = target: AsLOV2; assay: single-molecule force spectroscopy (dual-beam optical tweezers); constant velocity (force-extension) experiments, 200 and 500 nm/s; AsLOV2 and Zdk2 on one chain joined by (GGS)42, tethered by DNA handles between two beads; PBS, 1 mM TCEP, pH 7.4, oxygen scavenger; dark
[3] = target: AsLOV2(V416L); assay: as above
[4] = target: AsLOV2; assay: single-molecule force spectroscopy (dual-beam optical tweezers); constant load of 11 or 16 pN under 488-nm light (laser intensity 3 and 30%, pooled); AsLOV2 and Zdk2 on one chain joined by (GGS)42; PBS, 1 mM TCEP, pH 7.4
[5] = target: AsLOV2; assay: single-molecule force spectroscopy (dual-beam optical tweezers); jump experiments between 0 and 20.5 ± 1 pN to obtain unbinding and rebinding lifetimes; AsLOV2 and Zdk2 on one chain joined by (GGS)42; PBS, 1 mM TCEP, pH 7.4
[6] = target: AsLOV2(V416L); assay: as above

Work on Zdk2 (designed binder) yielded an average lifetime of the bound state at 11 pN, without light [1] of 174 s, an average lifetime of the bound state at 16 pN, without light [1] of 74 s and a percent of experiments at 11 pN without dissociation within 9 min [1] of 30%. The unbinding force [2] was 24 pN, the unbinding force [3] was 22 pN and the average lifetime of the bound state at 11 pN, with 488-nm light [4] was 47 s. It also gave an average lifetime of the bound state at 16 pN, with 488-nm light [4] of 45 s, an average lifetime of the peptide-bound state under force [5] of 0.56 s and a rebinding time at zero force [5] of 0.13 s. The average lifetime of the peptide-bound state under force [6] was 0.18 s and the rebinding time at zero force [6] was 0.44 s.
